From paper doi:10.1101/2025.10.09.681077

What was measured:
Experiment in all cases: partitioning into condensates
PLPPR3 ICDΔ345 = PLPPR3 ICDΔ345 (UniProt Q7TPB0)
[1] = molecular target: PLPPR3 ICDΔ345/Δ399 (double mutant) (UniProt Q7TPB0)
[2] = molecular target: PLPPR3 intracellular domain (ICD), purification construct HA-M1-PLPPR3 ICD-His (UniProt Q7TPB0)
PLPPR3 ICDΔ399 = PLPPR3 ICDΔ399 (UniProt Q7TPB0)

Question: For “alpha-actin (from UniProt P68032 1-377) (natural protein)”, which partition coefficient of G-actin into condensates, k actin (Cin/Cout) (PLPPR3 ICDΔ345) is on record?
Answer: Its partition coefficient of G-actin into condensates, k actin (Cin/Cout) is 15.2.

Question: And the partition coefficient of G-actin into condensates, k actin (Cin/Cout) [1]?
Answer: Its partition coefficient of G-actin into condensates, k actin (Cin/Cout) is 11.8.

Question: What about the partition coefficient of G-actin into condensates, k actin (Cin/Cout) [2] of the same substance?
Answer: Its partition coefficient of G-actin into condensates, k actin (Cin/Cout) is 15.4.

Question: What about the partition coefficient of G-actin into condensates, k actin (Cin/Cout) (PLPPR3 ICDΔ399) of the same substance?
Answer: Its partition coefficient of G-actin into condensates, k actin (Cin/Cout) is 11.8.
